The sequences below were run on Escherichia coli TOP10 (assay: shrunken log2 fold change of peptide-encoding DNA abundance (4.5 h post-induction vs induction); higher = less antimicrobial activity (less host growth inhibition)). Settings: time post-induction: 4.5 h; library: site-saturation at positions 5, 18, 19, 20.
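Further: peptides expressed intracellularly from a pBAD plasmid library in pooled LB shake-flask culture, induced with 0.3% L-arabinose, DNA abundance read by NGS, three biological replicates, DESeq2 with apeglm shrinkage.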

Row | Sequence | shrunken log2 fold change
1 | RRIRHRPPRLPRPRPRPMQFPRP | 0.00869
2 | RRIRGRPPRLPRPRPRPKEEPRP | 1.58
3 | RRIRFRPPRLPRPRPRPGDIPRP | 0.0113
4 | RRIRRRPPRLPRPRPRPLIGPRP | -0.0159
5 | RRIRTRPPRLPRPRPRPHTQPRP | -0.0664
6 | RRIRQRPPRLPRPRPRPNEQPRP | 0.0394
7 | RRIRVRPPRLPRPRPRPWWPPRP | 0.162
8 | RRIRMRPPRLPRPRPRPAQDPRP | 0.376
9 | RRIRERPPRLPRPRPRPKRPPRP | 0.194
10 | RRIRCRPPRLPRPRPRPKPVPRP | 0.179
11 | RRIRMRPPRLPRPRPRPVVYPRP | -0.0377
12 | RRIRARPPRLPRPRPRPHWEPRP | -0.00635
13 | RRIRTRPPRLPRPRPRPLWLPRP | 0.165
14 | RRIRMRPPRLPRPRPRPQAGPRP | 0.214
15 | RRIRHRPPRLPRPRPRPRLNPRP | -0.249
16 | RRIRIRPPRLPRPRPRPYATPRP | -0.334
17 | RRIRSRPPRLPRPRPRPHACPRP | -0.0756
18 | RRIRVRPPRLPRPRPRPKHAPRP | 0.133
19 | RRIRDRPPRLPRPRPRPPASPRP | 0.513
20 | RRIRYRPPRLPRPRPRPGGFPRP | -0.169

Row | Sequence | shrunken log2 fold change
21 | RRIRQRPPRLPRPRPRPECEPRP | 0.028
22 | RRIRRRPPRLPRPRPRPVSHPRP | 0.218
23 | RRIRDRPPRLPRPRPRPYNWPRP | -0.281
24 | RRIRYRPPRLPRPRPRPMPKPRP | -0.0102
25 | RRIRCRPPRLPRPRPRPNSFPRP | -0.58
26 | RRIRARPPRLPRPRPRPGNYPRP | 0.208
27 | RRIRPRPPRLPRPRPRPFQEPRP | -0.185
28 | RRIRCRPPRLPRPRPRPVKPPRP | 0.477
29 | RRIRNRPPRLPRPRPRPATMPRP | -0.1
30 | RRIRPRPPRLPRPRPRPCDYPRP | 0.218
31 | RRIRNRPPRLPRPRPRPNMVPRP | -0.385
32 | RRIRMRPPRLPRPRPRPKDGPRP | -0.0156
33 | RRIRIRPPRLPRPRPRPGDLPRP | -0.223
34 | RRIRQRPPRLPRPRPRPWYEPRP | 0.0185
35 | RRIRFRPPRLPRPRPRPRWVPRP | 0.191
36 | RRIRRRPPRLPRPRPRPMWLPRP | 0.105
37 | RRIRMRPPRLPRPRPRPYALPRP | 0.0157
38 | RRIRWRPPRLPRPRPRPFHYPRP | -2.18
39 | RRIRERPPRLPRPRPRPLTWPRP | 3.04
40 | RRIRGRPPRLPRPRPRPVTVPRP | 0.0499

Row | Sequence | shrunken log2 fold change
41 | RRIRIRPPRLPRPRPRPTMHPRP | -0.443
42 | RRIRYRPPRLPRPRPRPRFVPRP | -1.02
43 | RRIRPRPPRLPRPRPRPVDNPRP | 0.0523
44 | RRIRDRPPRLPRPRPRPGLIPRP | 0.0516
45 | RRIRTRPPRLPRPRPRPDWYPRP | -0.622
46 | RRIRWRPPRLPRPRPRPQLDPRP | 0.0393
47 | RRIRIRPPRLPRPRPRPVAGPRP | -0.0858
48 | RRIRHRPPRLPRPRPRPIGAPRP | 0.173
49 | RRIRHRPPRLPRPRPRPYCMPRP | -1.05
50 | RRIRGRPPRLPRPRPRPWVEPRP | 0.129
51 | RRIRQRPPRLPRPRPRPGPQPRP | 0.722
52 | RRIRPRPPRLPRPRPRPCEIPRP | 0.0471
53 | RRIRSRPPRLPRPRPRPCEIPRP | -0.0377
54 | RRIRMRPPRLPRPRPRPGRFPRP | 0.0931
55 | RRIRPRPPRLPRPRPRPERMPRP | 0.122
56 | RRIRSRPPRLPRPRPRPPRLPRP | 0.322
57 | RRIRYRPPRLPRPRPRPDIQPRP | -0.349
58 | RRIRGRPPRLPRPRPRPMMLPRP | 0.158
59 | RRIRVRPPRLPRPRPRPMCGPRP | 0.0281
60 | RRIRGRPPRLPRPRPRPMHWPRP | 0.382

Source: the supplement of paper PMC9112550, “Optimization of the antimicrobial peptide Bac7 by deep mutational scanning” (BMC Biology, 2022)
